Each block holds one binder with its values, some of them ahead of it.
Key:
[1] = target: T1, human PD-1 coupled to human Fc (human, UniProt Q15116 25-167, limits assumed); test: SPR (ProteOn XPR36); human PD-1-Fc immobilised, crude Fab extract flown over
T1 construct: also called human-PD-1 coupled to Fc; not shown: human Fc
Description: Briefly, human or mouse PD-1 coupled to human Fc was immobilised on a sensor chip compatible with the Proteon XPR36 bioanalyser (Biorad). Crude Fab extracts (or the control antibodies) were then flown onto the chip and the association/dissociation of each candidate Fab was then recorded and analysed, the affinity (KD) was calculated.

hCTLA4-Fc = target: T2, hCTLA4-Fc (human, UniProt P16410); test: ELISA; antigen coated 350 ng/well, goat anti-human Fab-HRP, absorbance 450-670 nm
T2 construct: also called human CTLA-4; human CTLA4
T2 sequence (P16410 37-162 limits assumed): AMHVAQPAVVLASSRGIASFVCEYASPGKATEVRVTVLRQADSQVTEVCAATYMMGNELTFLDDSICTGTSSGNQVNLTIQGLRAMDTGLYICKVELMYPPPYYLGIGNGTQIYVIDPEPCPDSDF
Description: (§1) Anti-PD-1 antibodies were tested in an ELISA assay for their ability to bind to other members of the CD28 family.
(§2) Briefly, ELISA plates were coated with 350 ng/well of one of the following antigens coupled to human Fc in carbonate buffer: human PD-1, human PD-L1, human TIM-3, human LAG-3, human ICOS, human CTLA4, human BTLA, human CD28, mouse TIM-3, or rhesus PD-1. The plate was then blocked with a solution of casein. After extensive washes in PBS Tween-20, antibodies were added into the ELISA wells in the presence of 7% milk in PBS. After 90 minutes at room temperature under agitation and extensive washes, a goat anti-human Fab antibody coupled to HRP was added. One hour later, plates were washed and TMB substrate added. The reaction was stopped with 1M HCl and optical density measured at 450 nm with a reference at 670 nm.

hICOS-Fc = target: T3, hICOS-Fc (human, UniProt Q9Y6W8); test: as above
T3 construct: also called human ICOS
T3 sequence (antigen, looked up): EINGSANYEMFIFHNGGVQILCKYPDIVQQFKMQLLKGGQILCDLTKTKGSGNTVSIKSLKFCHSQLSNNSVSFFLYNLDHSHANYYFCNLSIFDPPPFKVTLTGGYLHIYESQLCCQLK
Description: as §1, §2

mTim3-Fc = target: T4, mTim3-Fc (mouse, UniProt Q8VIM0); test: as above
T4 construct: also called mouse TIM-3
T4 sequence (Q8VIM0 20-191 limits assumed): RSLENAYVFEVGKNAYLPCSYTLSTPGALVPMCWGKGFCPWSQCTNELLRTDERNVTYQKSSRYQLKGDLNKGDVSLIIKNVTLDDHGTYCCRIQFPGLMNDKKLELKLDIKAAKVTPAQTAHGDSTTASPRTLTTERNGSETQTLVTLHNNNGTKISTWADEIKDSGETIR
Description: as §1, §2

[2] = target: T5, human PD-L1 coupled to human Fc (human, UniProt Q9NZQ7 19-239, limits assumed); test: as above
T5 construct: ELISA coating antigen; not shown: human Fc
T5 sequence (Q9NZQ7 19-239 limits assumed): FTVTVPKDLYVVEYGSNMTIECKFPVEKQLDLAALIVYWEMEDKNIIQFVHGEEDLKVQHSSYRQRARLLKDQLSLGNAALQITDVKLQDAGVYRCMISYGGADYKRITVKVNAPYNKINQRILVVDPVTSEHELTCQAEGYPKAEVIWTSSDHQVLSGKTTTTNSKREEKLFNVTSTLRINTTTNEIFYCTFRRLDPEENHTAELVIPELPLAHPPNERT
Description: as §1, §2

[3] = target: T6, human TIM-3 coupled to human Fc (human, UniProt Q8TDQ0 22-200, limits assumed); test: as above
T6 construct: not shown: human Fc
Description: as §1, §2

[4] = target: T7, human LAG-3 coupled to human Fc (human, UniProt P18627 23-450, limits assumed); test: as above
T7 construct: ELISA coating antigen; not shown: human Fc
T7 sequence (looked up): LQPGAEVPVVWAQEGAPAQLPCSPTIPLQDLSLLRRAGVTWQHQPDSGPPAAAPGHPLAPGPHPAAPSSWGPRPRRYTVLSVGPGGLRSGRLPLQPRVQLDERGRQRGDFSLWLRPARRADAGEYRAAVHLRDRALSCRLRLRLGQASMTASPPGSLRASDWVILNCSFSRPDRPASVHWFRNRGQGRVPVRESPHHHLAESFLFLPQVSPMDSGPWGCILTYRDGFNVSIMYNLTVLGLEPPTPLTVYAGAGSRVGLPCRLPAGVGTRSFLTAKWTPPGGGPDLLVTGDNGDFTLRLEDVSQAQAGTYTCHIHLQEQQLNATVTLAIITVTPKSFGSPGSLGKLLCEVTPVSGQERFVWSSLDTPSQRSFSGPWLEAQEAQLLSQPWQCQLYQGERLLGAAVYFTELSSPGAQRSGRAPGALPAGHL
Description: as §1, §2

[5] = target: T8, human BTLA coupled to human Fc (human, UniProt Q7Z6A9 31-150, limits assumed); test: as above
T8 construct: ELISA coating antigen; not shown: human Fc
T8 sequence (Q7Z6A9 31-150 limits assumed): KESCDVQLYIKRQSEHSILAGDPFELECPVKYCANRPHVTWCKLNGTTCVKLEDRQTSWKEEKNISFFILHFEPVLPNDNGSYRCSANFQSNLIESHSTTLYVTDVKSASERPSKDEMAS
Description: as §1, §2

[6] = target: T9, human CD28 coupled to human Fc (human, UniProt P10747 19-152, limits assumed); test: as above
T9 construct: ELISA coating antigen; not shown: human Fc
Description: as §1, §2

[7] = target: T10, PD-1 on exhausted human T cells (human, UniProt Q15116 25-288); test: flow cytometry (MFI); IgG4 on human T cells activated 7 days with allogeneic DCs, fluorescent secondary antibody
T10 construct: whole, on cells; T cells exhausted by 7 days of culture with allogeneic monocyte-derived dendritic cells
T10 sequence (Q15116 25-288): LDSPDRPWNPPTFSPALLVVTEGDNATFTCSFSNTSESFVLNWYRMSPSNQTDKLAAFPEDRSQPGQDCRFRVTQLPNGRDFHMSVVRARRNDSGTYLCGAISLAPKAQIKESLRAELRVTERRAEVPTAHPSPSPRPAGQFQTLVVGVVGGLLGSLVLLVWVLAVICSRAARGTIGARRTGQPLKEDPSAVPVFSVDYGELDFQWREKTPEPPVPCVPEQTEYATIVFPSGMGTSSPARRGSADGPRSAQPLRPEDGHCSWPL
Description: 50,000 T cells isolated from a healthy donor were incubated in the presence of 5,000 monocyte-derived DCs from another donor for 7 days at 37° C. Antibodies, expressed as IgG4, were incubated with such activated T cells for 30 minutes in PBS. After a wash in PBS, a fluorescent labelled secondary antibody was added for 30 minutes and then washed in PBS. Cells were resuspended in FACS buffer and binding of the antibody to the cells was monitored by flow cytometry (FIGS. 6 and 7).

T1 sequence (Q15116 25-167 limits assumed): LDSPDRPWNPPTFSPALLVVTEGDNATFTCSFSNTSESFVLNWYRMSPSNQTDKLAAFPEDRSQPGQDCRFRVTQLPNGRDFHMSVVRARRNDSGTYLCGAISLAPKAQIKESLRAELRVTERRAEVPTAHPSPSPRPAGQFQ

Kd [1]: 0.08 nM
binding result (hCTLA4-Fc): no binding (tested: not given)
binding result (hICOS-Fc): no binding (tested: not given)
binding result (mTim3-Fc): no binding (tested: not given)
binding result [2]: no binding (tested: not given)
binding result [3]: no binding (tested: not given)
binding result [4]: no binding (tested: not given)
binding result [5]: no binding (tested: not given)
binding result [6]: no binding (tested: not given)
B3: anti-PD-1 antibody clone A10 (Fab) (Fab, V domains shown)
VH: QVQLVQSGGGVVQPGRSLRLSCAASGFTFSSYGMHWVRQAPGKGLEWVAVISYDGSNKYYADSVKGRFTISRDNSKNTLYLQMNSLRAEDTAVYYCASDLGAGPYYYGKDVWGQGTTVTVSS
VL: LPVLTQPPSASGTPGQRVTISCSGSSSNIKFNSVNWYQQLPGTAPKLLIYSNNQRPSGVPDRFSGSKSGTSASLAISGLQSEDEADYFCASWDDYYYGTIFGGGTKLTVL
notes: Crude Fab extract in SPR

EC50 [7]: 0.532 nM
B4: G10 (antibody, IgG4, V domains shown)
VH: QVQLVESGGGVVQPGRSLRLSCAASGFTFSSYGMHWVRQAPGKGLEWVAVISYDGSNKYYADSVKGRFTISRDNSKNTLYLQMNSLRAEDTAVYYCASDYGAGPYYYGMDVWGQGTTVTVSS
VL: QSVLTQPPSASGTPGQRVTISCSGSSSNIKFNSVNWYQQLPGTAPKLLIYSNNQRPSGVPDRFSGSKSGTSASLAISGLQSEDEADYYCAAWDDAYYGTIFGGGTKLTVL
notes: also called anti-PD-1 antibody clone G10 (human IgG4)

EC50 [7]: 0.318 nM
B6: D4 (antibody, IgG4, V domains shown)
VH: QVQLVESGGGVVQPGRSLRLSCAASGFTFSSYGMHWVRQAPGKGLEWVAVISYDGSNKYYADSVKGRFTISRDNSKNTLYLQMNSLRAEDTAVYYCASDLGAGPYYYGMDVWGQGTTVTVSS
VL: QSVLTQPPSASGTPGQRVTISCSGSSSNIKFNSVNWYQQLPGTAPKLLIYSNNQRPSGVPDRFSGSKSGTSASLAISGLQSEDEADYYCASWDDYVRGTMFGGGTKLTVL
notes: also called anti-PD-1 antibody clone D4 (human IgG4)

binding result (hCTLA4-Fc): no binding (tested: not given)
binding result (hICOS-Fc): no binding (tested: not given)
binding result (mTim3-Fc): no binding (tested: not given)
binding result [2]: no binding (tested: not given)
binding result [3]: no binding (tested: not given)
binding result [4]: no binding (tested: not given)
binding result [5]: no binding (tested: not given)
binding result [6]: no binding (tested: not given)
B7: anti-PD-1 antibody clone H9 (Fab) (Fab, V domains shown)
VH: QVQLVESGGGVVQPGRSLRLSCAASGFTFSSYGMHWVRQAPGKGLEWVAVISYDGSNKYYADSVKGRFTISRDNSKNTLYLQMNSLRAEDTAVYYCASDLGAGPYYYGMDVWGQGTTVTVSS
VL: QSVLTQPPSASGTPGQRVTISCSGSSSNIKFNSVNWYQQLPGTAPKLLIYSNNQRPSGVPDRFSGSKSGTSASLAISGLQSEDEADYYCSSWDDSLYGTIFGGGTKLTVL
notes: Crude Fab extract in SPR

EC50 [7]: 0.281 nM
B9: C4 (antibody, IgG4, V domains shown)
VH: QVQLVESGGGVVQPGRSLRLSCAASGFTFSSYGMHWVRQAPGKGLEWVAVISYDGSNKYYADSVKGRFTISRDNSKNTLYLQMNSLRAEDTAVYYCASDLGAGPYYYGLDVWGQGTTVTVSS
VL: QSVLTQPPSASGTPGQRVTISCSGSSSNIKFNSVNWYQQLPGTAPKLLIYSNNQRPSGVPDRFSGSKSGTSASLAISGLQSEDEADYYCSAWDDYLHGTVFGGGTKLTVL
notes: also called anti-PD-1 antibody clone C4 (human IgG4)

EC50 [7]: 0.375 nM
B11: H9 (antibody, IgG4, V domains shown)
VH: QVQLVESGGGVVQPGRSLRLSCAASGFTFSSYGMHWVRQAPGKGLEWVAVISYDGSNKYYADSVKGRFTISRDNSKNTLYLQMNSLRAEDTAVYYCASDLGAGPYYYGMDVWGQGTTVTVSS
VL: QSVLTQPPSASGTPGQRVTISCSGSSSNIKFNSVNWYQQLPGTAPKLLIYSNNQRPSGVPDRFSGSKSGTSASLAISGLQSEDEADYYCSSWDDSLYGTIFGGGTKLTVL
notes: also called anti-PD-1 antibody clone H9 (human IgG4)

Kd [1]: 0.2 nM
binding result (hCTLA4-Fc): no binding (tested: not given)
binding result (hICOS-Fc): no binding (tested: not given)
binding result (mTim3-Fc): no binding (tested: not given)
binding result [2]: no binding (tested: not given)
binding result [3]: no binding (tested: not given)
binding result [4]: no binding (tested: not given)
binding result [5]: no binding (tested: not given)
binding result [6]: no binding (tested: not given)
B12: anti-PD-1 antibody clone A3 (Fab) (Fab, V domains shown)
VH: QVQLVQSGGGVVQPGRSLRLSCAASGFTFSSYGMHWVRQAPGKGLEWVAVISYDGSNKYYADSVKGRFTISRDNSKNTLYLQMNSLRAEDTAVYYCASDLGAGPYYYGKDHWGQGTTVTVSS
VL: LPVLTQPPSASGTPGQRVTISCSGSSSNIKFNSVNWYQQLPGTAPKLLIYSNNQRPSGVPDRFSGSKSGTSASLAISGLQSEDEADYFCASWDDVLYGSVFGGGTKLTVL
notes: Flown as crude Fab extract in SPR

EC50 [7]: 0.158 nM
B13: B6 (antibody, IgG4, V domains shown)
VH: QVQLVESGGGVVQPGRSLRLSCAASGFTFSSYGMHWVRQAPGKGLEWVAVISYDGSNKYYADSVKGRFTISRDNSKNTLYLQMNSLRAEDTAVYYCASDYGAGPYYYGMDVWGQGTTVTVSS
VL: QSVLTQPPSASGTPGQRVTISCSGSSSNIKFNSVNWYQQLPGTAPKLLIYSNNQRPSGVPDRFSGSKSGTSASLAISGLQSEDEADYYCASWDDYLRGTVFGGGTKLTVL
notes: also called anti-PD-1 antibody clone B6 (human IgG4)

Second part, the binder before the results:

B1: anti-PD-1 antibody clone G2 (Fab) (Fab, V domains shown)
VH: QVQLVESGGGVVQPGRSLRLSCAASGFTFSSYGMHWVRQAPGKGLEWVAVISYDGSNKYYADSVKGRFTISRDNSKNTLYLQMNSLRAEDTAVYYCASDLGAGPYYYGMDVWGQGTTVTVSS
VL: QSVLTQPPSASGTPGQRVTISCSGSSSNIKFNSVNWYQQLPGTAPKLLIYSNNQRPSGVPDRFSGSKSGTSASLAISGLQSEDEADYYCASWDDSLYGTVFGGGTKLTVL
notes: Crude Fab extract in SPR
Kd [1]: 0.1 nM
binding result (hCTLA4-Fc): no binding (tested: not given)
binding result (hICOS-Fc): no binding (tested: not given)
binding result (mTim3-Fc): no binding (tested: not given)
binding result [2]: no binding (tested: not given)
binding result [3]: no binding (tested: not given)
binding result [4]: no binding (tested: not given)
binding result [5]: no binding (tested: not given)
binding result [6]: no binding (tested: not given)

B2: G2 (antibody, IgG4, V domains shown)
VH: QVQLVESGGGVVQPGRSLRLSCAASGFTFSSYGMHWVRQAPGKGLEWVAVISYDGSNKYYADSVKGRFTISRDNSKNTLYLQMNSLRAEDTAVYYCASDLGAGPYYYGMDVWGQGTTVTVSS
VL: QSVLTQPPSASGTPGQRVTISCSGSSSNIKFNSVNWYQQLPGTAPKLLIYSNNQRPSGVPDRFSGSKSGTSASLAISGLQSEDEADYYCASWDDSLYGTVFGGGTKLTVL
notes: also called anti-PD-1 antibody clone G2 (human IgG4)
EC50 [7]: 0.78 nM

B5: H4 (antibody, IgG4, V domains shown)
VH: QVQLVESGGGVVQPGRSLRLSCAASGFTFSSYGMHWVRQAPGKGLEWVAVISYDGSNKYYADSVKGRFTISRDNSKNTLYLQMNSLRAEDTAVYYCASDLGSGYYLYGMDVWGQGTTVTVSS
VL: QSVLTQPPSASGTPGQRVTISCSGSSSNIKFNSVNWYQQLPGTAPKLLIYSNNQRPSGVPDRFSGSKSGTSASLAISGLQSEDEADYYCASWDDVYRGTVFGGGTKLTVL
notes: also called anti-PD-1 antibody clone H4 (human IgG4)
EC50 [7]: 0.189 nM

B8: F2 (antibody, IgG4, V domains shown)
VH: QVQLVESGGGVVQPGRSLRLSCAASGFTFSSYGMHWVRQAPGKGLEWVAVISYDGSNKYYADSVKGRFTISRDNSKNTLYLQMNSLRAEDTAVYYCASDLGAGPYYYGMDVWGQGTTVTVSS
VL: QSVLTQPPSASGTPGQRVTISCSGSSSNIKFNSVNWYQQLPGTAPKLLIYSNNQRPSGVPDRFSGSKSGTSASLAISGLQSEDEADYYCSSWDDDARGTIFGGGTKLTVL
notes: also called anti-PD-1 antibody clone F2 (human IgG4)
EC50 [7]: 0.446 nM

B10: G1 (antibody, IgG4, V domains shown)
VH: QVQLVESGGGVVQPGRSLRLSCAASGFTFSSYGMHWVRQAPGKGLEWVAVISYDGSNKYYADSVKGRFTISRDNSKNTLYLQMNSLRAEDTAVYYCASDLGAGPYYYGMDVWGQGTTVTVSS
VL: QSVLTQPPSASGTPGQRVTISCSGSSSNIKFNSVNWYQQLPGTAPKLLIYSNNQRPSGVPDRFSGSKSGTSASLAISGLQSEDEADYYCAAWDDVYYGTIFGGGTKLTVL
notes: also called anti-PD-1 antibody clone G1 (human IgG4)
EC50 [7]: 0.738 nM

B14: E1 (antibody, IgG4, V domains shown)
VH: QVQLVESGGGVVQPGRSLRLSCAASGFTFSSYGMHWVRQAPGKGLEWVAVISYDGSNKYYADSVKGRFTISRDNSKNTLYLQMNSLRAEDTAVYYCASDLGAGPYYYGMDVWGQGTTVTVSS
VL: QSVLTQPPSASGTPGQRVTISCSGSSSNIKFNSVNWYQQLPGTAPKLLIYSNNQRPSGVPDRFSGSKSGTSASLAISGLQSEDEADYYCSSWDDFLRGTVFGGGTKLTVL
notes: also called anti-PD-1 antibody clone E1 (human IgG4)
EC50 [7]: 0.542 nM

From patent US20170240635A1 (AGENCY FOR SCIENCE TECHNOLOGY AND RESEARCH, published 2017)
